# Read-outs that look alike come from different tables or passages of the source.
# How the values were obtained:
# [1] = system: patients with persistent moderate to severe atopic dermatitis inadequately controlled by TCS; experiment: Clinical Study I: safety, Weeks 0 to 20; assay type: in vivo, human
# Description: Safety Follow-Up Period. All patients who completed study treatment during the placebo-controlled treatment period (Weeks 1-12) were followed for safety for an additional 8 weeks (Weeks 13-20). During this safety follow-up period, patients were no longer required to apply the topical treatment regimen as specified during the run-in and treatment periods. Instead, triamcinolone acetonide 0.1% cream and/or hydrocortisone 2.5% cream could be applied as determined by the patient and the study investigator. At each study visit the patient was required to bring their TCS containers to the study site to be weighed. Patients were encouraged to continue applying emollients at least once daily to xerotic skin. An escalation in therapy for AD was allowed at any during the study, if, in the opinion of the investigator, it was clinically indicated.
# Safety Outcome Measures. The safety outcome measures for this study were as follows: (i) frequency and severity of treatment-emergent adverse events; (ii) incidence of human anti-therapeutic antibodies (ATA) at baseline and during the study; (iii) frequency and severity of skin and other organ system infections throughout the study; the clinical definition of skin infection was as follows: the diagnosis of infection was based on the Investigator's clinical assessment including but not limited to the presence of honey-colored crusting, serous discharge, pustules, or pain at the site of rash and that may be associated with systemic features, including fever or a flare in AD disease (defined above); and (iv) incidence of disease rebound following discontinuation of study drug as assessed by the investigator; the clinical definition of disease rebound was: a significant worsening of disease severity after cessation of therapy to a severity level that is greater than prior to commencing therapy (Hijnen et al., J Eur Acad Dermatol Venereol 2007; 21(1) 85-9).
# [2] = system: atopic dermatitis patients; experiment: Atopic dermatitis longitudinal PK-PD model of lebrikizumab (EASI score) and simulated dosing regimens; design: species or system human; conditions: PK-PD model fitted to EASI scores up to 12 weeks from Clinical Study I
# Description: In FIG. 5, R(t) is the EASI score; Kin0 is the baseline disease progression rate constant; kin is the disease progression rate constant with lebrikizumab and including the placebo/TCS effect; Edrug is the lebrikizumab drug effect on disease progression inhibition; Econ is the placebo/TCS effect (constant overtime); Emax is the maximum lebrikizumab drug effect on disease progression inhibition; EC50 is the lebrikizumab concentration that leads to 50% of Emax; kout is the tissue repair rate constant; R(t=0) is the baseline EASI score; IIV is the inter-individual variability; ωkout is the inter-individual variability for kout; ωEcon is the inter-individual variability for Econ; ρKoutXEcon is the correlation between kout and Econ; and σ is the residual error.
# The model was used to simulate the predicted efficacy, e.g., EASI-75 score, of various alternative dosing regimens, for example, including but not limited to, various loading doses followed subsequently by various maintenance doses, e.g., flat doses of lebrikizumab administered at regular time intervals, or various lower flat doses or higher flat doses, or increased treatment intervals with lebrikizumab.
# The model development began with raw pharmacokinetic and efficacy data that had been collected during the conduct of the Phase II Clinical Study I described above. […]
# [3] = system: moderate-to-severe asthmatic patients not controlled on inhaled corticosteroids; conditions: all doses (37.5, 125, 250 mg Q4W), cited from earlier work
# [4] = 125 mg Q4W + TCS (n = 50), Weeks 0 to 20
# [5] = 125 mg SD + TCS (n = 54), Weeks 0 to 20
# [6] = 250 mg SD + TCS (n = 52), Weeks 0 to 20
# [7] = all lebrikizumab groups (n = 156), Weeks 0 to 20
# [8] = lebrikizumab-treated patients, all doses
substance,measurement,setting,value
"lebrikizumab: monoclonal humanized anti-IL-13 IgG4 antibody; heavy chain SEQ ID NO: 11, light chain SEQ ID NO: 12; formulated at 125 mg/mL in prefilled syringe","AE leading to withdrawal from study drug, %",[1]; [4],(4) %
same,"Conjunctivitis allergic, %",[1]; [4],(4.0) %
same,"Injection site reactions, %",[1]; [4],(4) %
same,"Patients with at least one AE, %",[1]; [4],(54) %
same,"Patients with at least one serious AE, %",[1]; [4],(4) %
same,"SAE leading to withdrawal from study drug (Myopathy), %",[1]; [4],(2) %
same,"AE leading to withdrawal from study drug, %",[1]; [5],(2) %
same,"Conjunctivitis allergic, %",[1]; [5],(7.4) %
same,"Patients with at least one AE, %",[1]; [5],(70) %
same,"Patients with at least one serious AE, %",[1]; [5],(6) %
same,"AE leading to dose modification/interruption, %",[1]; [6],(2) %
same,"Conjunctival hyperaemia, %",[1]; [6],(1.9) %
same,"Conjunctivitis allergic, %",[1]; [6],(3.8) %
same,"Patients with at least one AE, %",[1]; [6],(75) %
same,"Conjunctival hyperaemia, %",[1]; [7],(0.6) %
same,"Conjunctivitis allergic, %",[1]; [7],(5.1) %
same,"Patients with at least one serious AE, %",[1]; [7],(3) %
same,"SAE leading to withdrawal from study drug (Myopathy), %",[1]; [7],(1) %
same,"Conjunctival infections, irritations and inflammations: patients with at least one AE, %","[1]; human, in vivo",(5.8) %
same,"Conjunctival infections, irritations and inflammations: total number of events","[1]; human, in vivo",10
same,Herpes infections: total number of infections related to study drug (investigator-assessed),"[1]; human, in vivo",0
same,"Infections, %","[1]; human, in vivo",(36) %
same,maximum eosinophil count in the five patients with eosinophil-associated AEs,"[1]; human, in vivo",0.91-3.2 ×10^9/L
same,"Eosinophil-associated AEs, % of patients",[1]; [8],3.2%
same,"Eosinophil-associated AEs, number of patients",[1]; [8],five
same,"patients with a conjunctivitis AE, %",[1]; pooled lebrikizumab group,9.6%
same,"deaths, events of anaphylaxis, malignancy, or protocol-defined parasitic or targeted intracellular infections of interest",[1]; whole study,no deaths
same,"EC50 (lebrikizumab concentration that leads to 50% of Emax), estimate",[2],8.08 µg/mL
same,"Emax (maximum lebrikizumab drug effect on disease progression inhibition), estimate",[2],0.729
same,reduction in the rate of asthma exacerbations,[3]; biomarker-high (serum periostin-high) patients,60%
same,reduction in the rate of asthma exacerbations,[3]; biomarker-low (serum periostin-low) patients,5%

# Source: US12692302B2, “Uses of IL-13 antagonists for treating atopic dermatitis” (Genentech, Inc., priority 2016, dated 2026)
